The data set has as its target T1, Rif1 NTD (100-1322) wild-type (Saccharomyces cerevisiae, UniProt P29539 100-1322).
T1 sequence: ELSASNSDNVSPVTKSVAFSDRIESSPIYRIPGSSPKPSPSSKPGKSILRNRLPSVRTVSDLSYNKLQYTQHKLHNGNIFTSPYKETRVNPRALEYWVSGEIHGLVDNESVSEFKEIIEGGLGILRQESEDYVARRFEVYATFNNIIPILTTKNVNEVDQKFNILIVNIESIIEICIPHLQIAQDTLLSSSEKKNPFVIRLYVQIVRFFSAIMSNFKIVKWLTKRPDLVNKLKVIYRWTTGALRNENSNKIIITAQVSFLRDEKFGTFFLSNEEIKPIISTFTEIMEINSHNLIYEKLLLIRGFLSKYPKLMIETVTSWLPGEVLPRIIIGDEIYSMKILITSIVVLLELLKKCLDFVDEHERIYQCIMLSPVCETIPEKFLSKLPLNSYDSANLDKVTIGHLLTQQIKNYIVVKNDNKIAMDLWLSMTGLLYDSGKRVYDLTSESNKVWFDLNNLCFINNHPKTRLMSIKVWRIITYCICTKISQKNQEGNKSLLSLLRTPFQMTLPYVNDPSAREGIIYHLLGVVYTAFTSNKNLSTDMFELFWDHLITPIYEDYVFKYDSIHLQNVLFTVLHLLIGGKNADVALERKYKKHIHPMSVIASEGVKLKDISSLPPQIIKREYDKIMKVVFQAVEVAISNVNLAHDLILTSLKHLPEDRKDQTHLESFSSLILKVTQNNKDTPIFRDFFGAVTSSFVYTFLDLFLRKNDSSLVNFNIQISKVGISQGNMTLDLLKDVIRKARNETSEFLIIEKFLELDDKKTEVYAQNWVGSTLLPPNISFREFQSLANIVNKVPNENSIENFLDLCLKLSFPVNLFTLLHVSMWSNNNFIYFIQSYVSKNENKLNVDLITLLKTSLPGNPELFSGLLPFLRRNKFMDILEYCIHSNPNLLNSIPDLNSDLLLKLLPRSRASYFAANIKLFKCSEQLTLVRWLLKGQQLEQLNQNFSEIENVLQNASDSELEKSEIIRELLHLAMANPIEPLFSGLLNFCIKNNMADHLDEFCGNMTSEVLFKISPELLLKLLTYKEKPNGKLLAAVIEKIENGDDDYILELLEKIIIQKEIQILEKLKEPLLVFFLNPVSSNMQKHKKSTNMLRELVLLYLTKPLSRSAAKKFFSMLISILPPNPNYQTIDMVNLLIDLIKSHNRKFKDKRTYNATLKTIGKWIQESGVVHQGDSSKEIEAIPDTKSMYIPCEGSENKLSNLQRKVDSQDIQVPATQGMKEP
Kind of data set: EMSA; protein 10-160 nM, DNA 1 nM; 20 mM Tris-HCl pH 8.0, 100 mM NaCl, 2.5 mM MgCl2, 10 mM CaCl2, 0.1 mg/ml BSA, 1 mM TCEP, 30 min at 20 °C; 1.2% agarose gel, 0.5x TBE, 4 °C. The conditions noted are these: protein: recombinant; tags: N-terminal Strep(II); label: 5'-32P on EMSA1; blunt. (In general: In EMSA bound probe runs differently from free probe, usually more slowly.)

B1: 30 bp dsDNA (EMSA1/EMSA2) (dsDNA)
DNA 1: TAGCAAGGCACTGGTAGAATTCGGCAGCGT
DNA 2: ACGCTGCCGAATTCTACCAGTGCCTTGCTA
For the molecule B1, the binding result is reported as “binds”.

For the origin of these results see article PMC6557901, “Rif1 S-acylation mediates DNA double-strand break repair at the inner nuclear membrane”.
